According to PMC3642240, “Cloning, Expression and Characterization of 3-Hydroxyisobutyrate Dehydrogenase from Pseudomonas denitrificans ATCC 13867” (PLoS ONE, 2013):

Tests used:
Assay in all cases: purified protein
purified protein [1] = substrate: COC(=O)[C@@H](C)CO; settings: 2 mM NAD+, 100 mM Tris-HCl pH 9.0, 30 °C
purified protein [2] = substrate: O=C(O)CCO; settings: 2 mM NAD+, 100 mM Tris-HCl pH 9.0, 30 °C
purified protein [3] = substrate: C[C@@H](CO)C(=O)O; settings: 2 mM NAD+, 100 mM Tris-HCl pH 9.0, 30 °C
purified protein [4] = substrate: NC(=O)c1ccc[n+]([C@@H]2O[C@H](COP(=O)(O)OP(=O)(O)OC[C@H]3O[C@@H](n4cnc5c(N)ncnc54)[C@H](O)[C@@H]3O)[C@@H](O)[C@H]2O)c1; settings: 3 mM 3-hydroxypropionate, NAD+ 0.025-4 mM, 100 mM Tris-HCl pH 9.0, 30 °C, varied: cofactor
purified protein [5] = substrate: CC(N)(CO)C(=O)O; settings: 2 mM NAD+, 100 mM Tris-HCl pH 9.0, 30 °C

B1: 3HIBDH-IV (Pseudomonas sp. ATCC 13867) (protein)
chain: MRIGFIGLGNMGGPMAANLLKAGFDLSVFDLSAKAVAAAVALGARALASPAEVARDDVEVIITMLPAAAHVKQVFLGEDGLLANVQPGVLLIDSSTIDPLNAREVSAAALAHGNPMLDAPVSGGTAGAAAGTLTFMVGGEPADFERARPALAAMGKNIVHCGGTGNGQVAKVANNLLLGISMIGVAEAMSLGVKLGMDADVLAGIINTSSGRCWSSEVNNPLTGAPAARGYSGGFGTDLMLKDLGLASEAARQVRQPVLLGALAQQLFQTFSNQGNGQLDFSAIVKLYEQG
B1 was tested, and the Km (purified protein [1]) was 25142 ± 1667 µM, the Vmax (purified protein [1]) was 67 µmol/min/mg and the kcat (purified protein [1]) was 35.8 ± 3.3 s⁻¹. For the same protein, the kcat/Km (purified protein [1]) was 1430 ± 231 M⁻¹ s⁻¹, the Km (purified protein [2]) was 1055 ± 35 µM and the Vmax (purified protein [2]) was 20.2 µmol/min/mg. For the same protein, the kcat (purified protein [2]) was 10.8 ± 0.945 s⁻¹, the kcat/Km (purified protein [2]) was 10200 ± 699 M⁻¹ s⁻¹ and the Km (purified protein [3]) was 178 ± 10 µM. For the same protein, the Vmax (purified protein [3]) was 151 µmol/min/mg, the kcat (purified protein [3]) was 80.8 ± 1.1 s⁻¹ and the kcat/Km (purified protein [3]) was 455000 ± 33000 M⁻¹ s⁻¹. For the same protein, the Km (purified protein [4]) was 164 ± 37 µM, the Vmax (purified protein [4]) was 12.6 µmol/min/mg and the kcat (purified protein [4]) was 6.72 ± 0.126 s⁻¹. The kcat/Km (purified protein [4]) was 42400 ± 10900 M⁻¹ s⁻¹, the Km (purified protein [5]) was 24180 ± 3169 µM and the Vmax (purified protein [5]) was 12.4 µmol/min/mg. It also gave a kcat (purified protein [5]) of 6.62 ± 0.475 s⁻¹ and a kcat/Km (purified protein [5]) of 275 ± 16 M⁻¹ s⁻¹.
